{"source": "paper PMC5777889", "test_in_all_cases": "EMSA", "details_in_all_cases": "buffer, room temperature", "key": {"HapR (Vibrio cholerae)": {"system": "HapR (Vibrio cholerae)"}, "LeuO (Vibrio cholerae)": {"system": "LeuO (Vibrio cholerae)"}, "H-NS (Vibrio cholerae)": {"system": "H-NS (Vibrio cholerae)"}}, "data": [{"substance": "vieSAB promoter -198 to +70", "values": [{"measurement": "Kd", "setting": "HapR (Vibrio cholerae)", "value": 0.174, "unit": "µM"}]}, {"substance": "vieSAB promoter, El Tor biotype (EMSA)", "values": [{"measurement": "Kd", "setting": "LeuO (Vibrio cholerae)", "value": 0.0312, "unit": "µM"}, {"measurement": "Kd", "setting": "H-NS (Vibrio cholerae)", "value": 0.0523, "unit": "µM"}]}, {"substance": "vieSAB promoter, classical biotype (EMSA)", "values": [{"measurement": "Kd", "setting": "LeuO (Vibrio cholerae)", "value": 0.0312, "unit": "µM"}, {"measurement": "Kd", "setting": "H-NS (Vibrio cholerae)", "value": 0.0441, "unit": "µM"}]}]}
